# Target: the molecule itself
# Experiment: SEC
protein,measurement,value
"recombinant FOG-3 (sizing column, Figure S2A) (domain or fragment) MYTEVRELVNFVCRYLFGHIPRRPVGIFGAELGNYLVSHFSSTWDVHHPKNGEMKRMINTTTSLCFASSAEEAGVPPSDVLRLLPTNMIIFANPGHVFVRLSENGIETPIWIGDVNCDENYQSVPEYVVRTAAIRAE",stoichiometry N,2

# From paper PMC6066285 (Cell reports, 2018)
